The record followed here is publication PMC9812370 (Cell Reports, 2023).

The target in this experiment is SARS-CoV-2 wild-type (D614G) HexaPro S protein ectodomain (SARS-CoV-2 Wuhan-Hu-1 with D614G …, D614G). The experiment can be described thus: ELISA.

B1: Fab 4A8 (Fab, V domains shown)
VH: EVQLVESGAEVKKPGASVKVSCKVSGYTLTELSMHWVRQAPGKGLEWMGGFDPEDGETMYAQKFQGRVTMTEDTSTDTAYMELSSLRSEDTAVYYCATSTAVAGTPDLFDYYYGMDVWGQGTTVTVSS
VL: EIVMTQSPLSSPVTLGQPASISCRSSQSLVHSDGNTYLSWLQQRPGQPPRLLIYKISNRFSGVPDRFSGSGAGTDFTLKISRVEAEDVGVYYCTQATQFPYTFGQGTKVDIK
Consider B1, for which the binding result was “binds”.
